Experimental data taken from patent US8710017B2, “Human and mouse targeting peptides identified by phage display” (priority 2000, dated 2014).
Ends that are not written are not given here.

How the values were obtained:
[1] = biological target: T1, β3 integrin cytoplasmic domain (Homo sapiens, UniProt P05106); experiment: Phage binding to immobilized GST-β3cyto
T1 construct: recombinant fusion proteins containing β3 or β5 cytoplasmic domains
T1 sequence (P05106 742-788 limits assumed): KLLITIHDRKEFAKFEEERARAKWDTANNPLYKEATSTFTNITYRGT
Experimental: FIG. 9. Binding of β3 cytoplasmic domain-selected phage to immobilized proteins. GST fusion proteins or GST alone were coated on microtiter wells at 10 μg/ml and used to bind phage expressing endostatin targeting peptides. […] The data represent the mean colony counts from triplicate wells, with standard error of less than 10% of the mean.
β3 and β5 cytoplasmic domain-binding peptides were isolated by screening multiple phage libraries with recombinant GST fusion proteins that contained either GST-β3cyto or GST-β5cyto coated onto microtiter wells. Immobilized GST was used as a negative control for enrichment during the panning of each cytoplasmic domain. Phage were sequenced from randomly selected clones after three rounds of panning as disclosed elsewhere (Koivunen et al., 1995; Pasqualini et al., 1995). Distinct sequences were isolated that interacted specifically with the β3 or with the β5 cytoplasmic domains (Table 9). Randomly selected clones from panning rounds II and III were sequenced. […] The ratios were calculated by dividing the number of colonies recovered from β3-GST-coated wells and those recovered from GST or BSA.
The specificity of the interaction with β3 or β5 cytoplasmic domains was determined by calculating the ratios between the number of phage bound to the cytoplasmic domain containing-fusion proteins (β3 or β5) versus GST alone (negative control). […]

GST-β1 integrin = GST-β1 integrin (Homo sapiens, UniProt P05556); experiment: Annexin V binding to GST-β1 cytoplasmic domain (ELISA); details: FIG. 20A
Sequence of GST-β1 integrin (P05556 752-798 limits assumed): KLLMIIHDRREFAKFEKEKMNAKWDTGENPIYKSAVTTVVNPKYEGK
Experimental: (§1) Competitive binding assays were performed to examine the binding of Annexin V to β5 integrin and the effect of the VISY peptide. Plates were coated with GST fusion proteins of the cytoplasmic domains of various integrins and Annexin V was added to the plates. Binding of Annexin V was determined using anti-Annexin V antibodies. […] Calcium was used because Annexin V activity has been reported to be modulated by calcium. Binding of Annexin V to GST-β5 was blocked by addition of the VISY peptide (FIG. 20A).

GST-β3 integrin = biological target: T2, GST-β3 integrin (Homo sapiens, UniProt P05106); experiment: Annexin V binding to GST-β3 cytoplasmic domain (ELISA); details: FIG. 20A
T2 construct: recombinant fusion proteins containing β3 or β5 cytoplasmic domains
T2 sequence (P05106 742-788 limits assumed): T1 sequence (P05106 742-788 limits assumed)
Experimental: as §1

GST-β5 integrin = biological target: T3, GST-β5 integrin (Homo sapiens, UniProt P18084); experiment: Annexin V binding to GST-β5 cytoplasmic domain (ELISA), competition with VISY peptide
T3 construct: Plates were coated with GST fusion proteins of the cytoplasmic domains of various integrins and Annexin V was added to the plates
T3 sequence (P18084 743-799 limits assumed): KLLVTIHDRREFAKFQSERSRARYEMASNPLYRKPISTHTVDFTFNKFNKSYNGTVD
Experimental: as §1
A reciprocal study was performed, using Annexin V to coat plates and adding GST fusion proteins of integrin cytoplasmic domains. Binding was assessed using anti-GST fusion protein antibodies. […] In some studies, calcium ion appeared to interfere with the binding interaction between GST-β5 and Annexin V, with decreased binding observed in the presence of calcium (not shown).

[2] = biological target: T4, β5 integrin cytoplasmic domain (Homo sapiens, UniProt P18084); experiment: Binding of Fyn-phosphorylated phage to β5 cytoplasmic domain
T4 construct: the screenings involving the β5 cytoplasmic domain fusion protein
T4 sequence (P18084 743-799 limits assumed): T3 sequence (P18084 743-799 limits assumed)
Experimental: Phosphorylation of peptide libraries with src family protein kinases (Fyn, c-Src, Lyn, and Syc) and serine/threonine kinases such as a MAP kinase were performed as described previously (Schmitz et al., 1996; Dente et al., 1997; Gram et al., 1997). Briefly, phage particles were collected from culture supernatants by double precipitation with 20% polyethylene glycol 8000 in 2.5 M NaCl. Particles were dissolved at 10^12 particles/ml. Purified phage (10 μl) were incubated for 3 hours at room temperature with different concentrations (35 to 3,500 units) of protein kinases in a reaction buffer volume of 50 μl. The reaction mixtures were transferred to tubes containing 10 μg of agarose-conjugated anti-P-Tyr, anti-P-Ser, or anti-P-Thr monoclonal antibodies to select phage displaying phosphorylated peptides. […] Phosphorylated peptides binding to β3 and β5 cytoplasmic domains were analyzed as described in the previous section.
Randomly selected clones from rounds III and IV were sequenced from a X4YX4 phosphorylated library with Fyn. […] The ratio of binding to β3 or β5 was calculated by dividing the number of β3 or β5 colonies by GST or BSA colonies found after panning. The ratio of binding to β3 or β5 with phosphorylated phage by Fyn versus unphosphorylated phage was calculated by dividing the number of colonies found after the panning. […]

HUVEC cells = experiment: Apoptosis assay (propidium iodide staining, subdiploid population); assay type: cell-based, human; details: 15 μM, 4 hours, FIG. 17
Experimental: FIG. 17. Penetratin peptide chimera binding to the β5 cytoplasmic domain induces programmed cell death. 10^6 HUVEC cells were harvested in complete media and 15 μM penetratin peptide chimeras were added to the cells.
Approximately 1×10^6 cells were harvested in complete media and 15 μM of peptide added for 4, 8, or 12 h. The cells were then washed in PBS and resuspended in 0.5 ml propidium iodide solution (50 μg/ml PI, 0.1% Triton X-100, 0.1% sodium citrate). After a 24-h incubation at 4° C., cells were counted with a XL Coulter (Coulter Corporation) with a 488-nm laser; 12,000 cells were counted for each histogram, and cell cycle distributions were analyzed with Multicycle program.
Approximately 1×10^6 cells were harvested in complete medium, and 15 μM of peptide was added for 4, 8, or 12 hours. The cells were then washed in PBS and resuspended in 0.5 ml propidium iodide solution (50 μg/ml PI, 0.1% Triton X-100, 0.1% sodium citrate). After a 24-h incubation at 4° C., the cells were counted with an XL Coulter (Coulter Corporation) with a 488 nm laser; 12,000 cells were counted for each histogram, and cell cycle distributions were analyzed with the Multicycle program.

HUVEC = experiment: Apoptosis by chromatin fragmentation (agarose gel) in HUVEC; assay type: cell-based, human; details: 15 μM, 2-4 hours, FIG. 21
Experimental: 10^6 HUVEC were treated with 15 μM of VISY antennapedia (penetratin) chimera or 15 μM of antennapedia peptide (pentratin) alone for 2-4 hours and chromatin fragmentation was analyzed by electrophoresis in an agarose gel.

mouse spleen = experiment: In vivo spleen targeting of Fab phage clones by BRASIL; details: 5 minutes circulation, FIG. 5
mouse spleen cells = experiment: In vitro binding of Fab phage clones to spleen cells by BRASIL; assay type: cell-based
Experimental: A singe cell suspension was prepared from two mouse spleens. The suspension was divided into five tubes and incubated on ice with 3×10^9 TU of Fab clones #2, #6, #10, #12 and 2×10^9 TU tet-phage. Phage bound to mouse spleen cells were recovered by BRASIL. 200 μl of log phase ER2537 E. coli was infected with the pellet and serial dilutions were plated on LB/carbenicillin and LB/tetracyclin plates for assessment of phage binding. Fd-tet was used as an internal control to normalize all the phage homing experiments.

AGWLYMSWK
β3/BSA Ratio ([1]; colonies from β3-GST-coated wells divided by those from BSA): 2.4 | β3/GST Ratio ([1]; colonies from β3-GST-coated wells divided by those from GST): 1.8

Annexin V: 36 kDa endogenous protein analog of the VISY peptide, ligand of β5 integrin cytoplasmic domain
binding of Annexin V to GST-β1 integrin (GST-β1 integrin): did not bind | binding of Annexin V to GST-β3 integrin (GST-β3 integrin): did not bind | binding of Annexin V to GST-β5 integrin (GST-β5 integrin; FIG. 20A): bound strongly | binding of Annexin V to GST-β5 integrin (GST-β5 integrin; Tris-buffered saline (TBS)): Low binding | binding of Annexin V to GST-β5 integrin (GST-β5 integrin; cytoplasmic buffer with or without added calcium (2 mM)): high binding

TLRKYFHSS
β3 or β5/GST ([2]; X4YX4 library phosphorylated with Fyn): 5.6

TMLRYFMFP
Phos/Unphos ([2]; phage phosphorylated by Fyn versus unphosphorylated phage): 4.2

VISY-penetratin chimera: chimeric peptide containing VISY peptide (VVISYSMPD) linked to penetratin (antennapedia), plus a biotin moiety (VVISYSMPDRQIKIWFQNRRMKWKK; also: plus a biotin moiety, site not given here)
induction of apoptosis (PI staining) (HUVEC cells): induction of apoptosis | induction of apoptosis (chromatin fragmentation) (HUVEC): induction of apoptosis

B1: Fab clone #6: chicken Fab phage clone from α-spleen library, localized in mouse spleen (protein)
scFv: CQPAMAAVTLDESGGGLQTPGGTLSLVCKASGISIGYGMNWVRQAPGKGLEYVASISGDGNFAHYGAPVKGRATISRDDGQNTVTLQLNNLR
modifications: Fab format
binding to spleen compared to Fd-tet phage (mouse spleen): many-fold increased binding to spleen | binding to mouse spleen cells compared to Fd-tet insertless control phage (mouse spleen cells; FIG. 3): lowest degree of differential binding | binding to mouse spleen cells, direct comparison with NPC-3TT (mouse spleen cells; FIG. 4): only slightly higher than the binding of phage NPC-3TT
